The target of this experiment is T1, human complement C1q (from natural human complement serum) (human, UniProt P02745 23-245; P02746 28-253; P02747 29-245).
T1 construct: Whole human complement serum was added to the coated MAb; also called complement human serum
Put plainly: ELISA, MAb coated on the plate, natural human complement added, detection with anti-human C1q peroxidase conjugate.

T1 sequence (P02745 23-245 limits assumed, chain 1 of 3): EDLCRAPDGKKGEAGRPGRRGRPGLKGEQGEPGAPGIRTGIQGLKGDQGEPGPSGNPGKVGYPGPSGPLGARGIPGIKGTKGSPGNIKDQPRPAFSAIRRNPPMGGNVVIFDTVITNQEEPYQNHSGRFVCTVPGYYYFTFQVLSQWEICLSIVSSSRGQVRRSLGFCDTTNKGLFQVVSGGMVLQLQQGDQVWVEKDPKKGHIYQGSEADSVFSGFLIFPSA
T1 sequence (P02746 28-253 limits assumed, chain 2 of 3): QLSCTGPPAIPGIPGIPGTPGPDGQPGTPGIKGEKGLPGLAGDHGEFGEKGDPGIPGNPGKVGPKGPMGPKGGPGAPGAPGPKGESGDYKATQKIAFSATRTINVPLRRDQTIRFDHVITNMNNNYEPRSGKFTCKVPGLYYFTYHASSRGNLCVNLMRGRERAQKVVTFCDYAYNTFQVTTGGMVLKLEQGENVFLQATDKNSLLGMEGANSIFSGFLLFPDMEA
T1 sequence (P02747 29-245 limits assumed, chain 3 of 3): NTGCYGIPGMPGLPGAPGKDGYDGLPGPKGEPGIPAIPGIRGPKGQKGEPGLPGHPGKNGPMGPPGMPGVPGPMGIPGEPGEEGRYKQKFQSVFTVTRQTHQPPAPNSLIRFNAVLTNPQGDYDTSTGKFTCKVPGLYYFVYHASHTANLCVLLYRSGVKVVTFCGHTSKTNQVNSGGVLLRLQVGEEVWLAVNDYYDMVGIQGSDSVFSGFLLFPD
Method: The binding of human complement serum to MAbs was assessed by an ELISA binding assay. The 96-well plates (Nunc) were coated overnight at 4° C. with varying MAb concentrations. After washing, the plates were blocked with PBS-5% BSA for 1 h, and incubated for 1 h with 2.5 μl/well of natural human complement (Sigma). Then, 100 μl/well of a 1/500 dilution of sheep anti-human C1q peroxidase-conjugated Ab (Abd Serotec) added and incubated for 1h. The plates were developed with 100 μl per well of TMB substrate (Uptima Interchim). After H₂SO₄ addition, the OD was measured at 450 nm/630 nm using a MRX II microplate reader. Data represent mean+/−SD of two independent experiments.

B1: chR005-1 Fc24 (antibody, human IgG1, name in EU numbering)
heavy: QVQLQQSGAELVRPGSSVKISCKASGYAFSSYWVNWMKQRPGQGLEWIGQIYPGDGDTNYNGKFKGRATVTADKSSSTSYMQFSSLTSEDSAVYFCARSITTVVGCAMDYWGQGTSVTVSSASTKGPSVFPLAPSSKSTSGGTAALGCLVKDYFPEPVTVSWNSGALTSGVHTFPAVLQSSGLYSLSSVVTVPSSSLGTQTYICNVNHKPSNTKVDKKVEPKSCDKTHTCPPCPAPELLGGPSVFLLPPKPKDTLMISRTPEVTCVVVDVSHEDPEVKFNWYVDGVEVHNAKTKPPEEQYNSTLRVVSLLTVLHQDWLNGKEYKCKVSNAALPAPIAKTISKAKGQPREPQVYTLPPSRDELTKNQVSLTCLVKGFYPSDIAVEWESNGQPENNYKTTPLVLDSDGSFFLYSKLTVDKSRWQQGNVFSCSVMHEALHNHYTQKSLSLSPGK
light: DIQMTQSSAYLSVSLGGRVTITCKASDHINNWLAWYQHKPGNAPRLLISGATTLETGVPSRFSGSGSGKDYTLSITSLQTEDVATYYCQQSWNTPWTFGGGTK
notes: also called chR005-1 MAb Fc24 optimized variant; not shown: human light chain constant region
For B1, the binding result is on record as “binds”.
